The values that follow come from patent US20200199241A1 (Chugai, published 2020).

A word on the Kd: it is a measure of binding affinity in units of concentration. Read a high Kd as weaker binding.

Changes are numbered by the printed parent chain.

First the molecules themselves.
B1: IgG1-F168 (antibody)
heavy: QVQLQESGPGLVKPSETLSLTCAVSGHSISHDHAWSWVRQPPGEGLEWIGFISYSGITNYNPSLQGRVTISRDNSKNTLYLQMNSLRAEDTAVYYCARSLARTTAMDYWGEGTLVTVSSASTKGPSVFPLAPSSKSTSGGTAALGCLVKDYFPEPVTVSWNSGALTSGVHTFPAVLQSSGLYSLSSVVTVPSSSLGTQTYICNVNHKPSNTKVDKKVEPKSCDKTHTCPPCPAPELLGGPSVFLFPPKPKDTLWISRTPEVTCVVVDVSHEDPEVKFNWYVDGVEVHNAKTKPREEQYNSTYRVVSVLTVLHQDWLNGKEYKCKVSNKALPAPIEKTISKAKGQPREPQVYTLPPSRDELTKNQVSLTCLVKGFYPSAIAVEWESNGQPENNYKTTPPVLDSDGSFFLYSKLTVDKSRWQQGNVFSCSVMHEALHYHYTQKSLSLSP
light: not shown
notes: EU numbering; copies: 2 + 2
B2: IgG1-F184 (antibody)
heavy: B1 heavy with W254M, P259V, A378D, M430L, Y436W
light: not shown
notes: EU numbering; copies: 2 + 2
B3: IgG1-F169 (antibody)
heavy: B1 heavy with V307A, A378D
light: not shown
notes: EU numbering; copies: 2 + 2
B4: IgG1-F196 (antibody)
heavy: B1 heavy with W254M, P259A, T309Q, A378D, M430L
light: not shown
notes: EU numbering; copies: 2 + 2
B5: IgG1-F179 (antibody)
heavy: B1 heavy with N327G, A378D
light: not shown
notes: EU numbering; copies: 2 + 2
B6: IgG1-F219 (antibody)
heavy: B1 heavy with W254Y, T291H, A378D
light: not shown
notes: EU numbering; copies: 2 + 2
B7: IgG1-F218 (antibody)
heavy: B1 heavy with W254Y, A378D, G387H
light: not shown
notes: EU numbering; copies: 2 + 2
B8: IgG1-F189 (antibody)
heavy: B1 heavy with W254Y, T309A, A378D
light: not shown
notes: EU numbering; copies: 2 + 2
B9: IgG1-F206 (antibody)
heavy: B1 heavy with W254Y, T309I, A378D
light: not shown
notes: EU numbering; copies: 2 + 2
B10: IgG1-F240 (antibody)
heavy: B1 heavy with W254Y, A378D, M430F
light: not shown
notes: EU numbering; copies: 2 + 2
B11: IgG1-F211 (antibody)
heavy: B1 heavy with W254Y, T309P, A378D
light: not shown
notes: EU numbering; copies: 2 + 2
B12: IgG1-F226 (antibody)
heavy: B1 heavy with W254Y, L316K, A378D
light: not shown
notes: EU numbering; copies: 2 + 2
B13: IgG1-F175 (antibody)
heavy: B1 heavy with A378D, S426A
light: not shown
notes: EU numbering; copies: 2 + 2
B14: IgG1-F238 (antibody)
heavy: B1 heavy with W254Y, A378D, M430D
light: not shown
notes: EU numbering; copies: 2 + 2
B15: IgG1-F201 (antibody)
heavy: B1 heavy with W254Y, T309D, A378D
light: not shown
notes: EU numbering; copies: 2 + 2
B16: IgG1-F173 (antibody)
heavy: B1 heavy with A378D, E382A
light: not shown
notes: EU numbering; copies: 2 + 2
B17: IgG1-F230 (antibody)
heavy: B1 heavy with W254Y, A378D, P389E
light: not shown
notes: EU numbering; copies: 2 + 2
B18: IgG1-F212 (antibody)
heavy: B1 heavy with W254Y, T309R, A378D
light: not shown
notes: EU numbering; copies: 2 + 2
B19: IgG1-F191 (antibody)
heavy: B1 heavy with W254M, P259L, T309A, A378D, M430L
light: not shown
notes: EU numbering; copies: 2 + 2
B20: IgG1-F204 (antibody)
heavy: B1 heavy with W254Y, T309G, A378D
light: not shown
notes: EU numbering; copies: 2 + 2
B21: IgG1-F203 (antibody)
heavy: B1 heavy with W254Y, T309F, A378D
light: not shown
notes: EU numbering; copies: 2 + 2
B22: IgG1-F170 (antibody)
heavy: B1 heavy with Q313A, A378D
light: not shown
notes: EU numbering; copies: 2 + 2
B23: IgG1-F217 (antibody)
heavy: B1 heavy with W254Y, K336L, A378D
light: not shown
notes: EU numbering; copies: 2 + 2
B24: IgG1-F214 (antibody)
heavy: B1 heavy with W254Y, T309V, A378D
light: not shown
notes: EU numbering; copies: 2 + 2
B25: IgG1-F205 (antibody)
heavy: B1 heavy with W254Y, T309H, A378D
light: not shown
notes: EU numbering; copies: 2 + 2
B26: IgG1-F190 (antibody)
heavy: B1 heavy with W254Y, T309Q, A378D
light: not shown
notes: EU numbering; copies: 2 + 2
B27: IgG1-F177 (antibody)
heavy: B1 heavy with S300G, A378D
light: not shown
notes: EU numbering; copies: 2 + 2
B28: IgG1-F193 (antibody)
heavy: B1 heavy with W254M, P259T, T309A, A378D, M430L
light: not shown
notes: EU numbering; copies: 2 + 2
B29: IgG1-F209 (antibody)
heavy: B1 heavy with W254Y, T309M, A378D
light: not shown
notes: EU numbering; copies: 2 + 2
B30: IgG1-F210 (antibody)
heavy: B1 heavy with W254Y, T309N, A378D
light: not shown
notes: EU numbering; copies: 2 + 2
B31: IgG1-F198 (antibody)
heavy: B1 heavy with W254M, P259V, T309Q, A378D, M430L
light: not shown
notes: EU numbering; copies: 2 + 2
B32: IgG1-F194 (antibody)
heavy: B1 heavy with W254M, P259V, T309A, A378D, M430L
light: not shown
notes: EU numbering; copies: 2 + 2
B33: IgG1-F192 (antibody)
heavy: B1 heavy with W254M, P259A, T309A, A378D, M430L
light: not shown
notes: EU numbering; copies: 2 + 2
B34: IgG1-F182 (antibody)
heavy: B1 heavy with W254M, P259A, A378D, M430L, Y436W
light: not shown
notes: EU numbering; copies: 2 + 2
B35: IgG1-F208 (antibody)
heavy: B1 heavy with W254Y, T309L, A378D
light: not shown
notes: EU numbering; copies: 2 + 2
B36: IgG1-F236 (antibody)
heavy: B1 heavy with K250I, W254M, A378D, M430L
light: not shown
notes: EU numbering; copies: 2 + 2
B37: IgG1-F229 (antibody)
heavy: B1 heavy with W254Y, R257E, A378D
light: not shown
notes: EU numbering; copies: 2 + 2
B38: IgG1-F183 (antibody)
heavy: B1 heavy with W254M, P259T, A378D, M430L, Y436W
light: not shown
notes: EU numbering; copies: 2 + 2
B39: IgG1-F228 (antibody)
heavy: B1 heavy with W254Y, L311E, A378D
light: not shown
notes: EU numbering; copies: 2 + 2
B40: IgG1-F225 (antibody)
heavy: B1 heavy with W254Y, L316R, A378D
light: not shown
notes: EU numbering; copies: 2 + 2
B41: IgG1-F176 (antibody)
heavy: B1 heavy with S241K, A378D
light: not shown
notes: EU numbering; copies: 2 + 2
B42: IgG1-F171 (antibody)
heavy: B1 heavy with D314A, A378D
light: not shown
notes: EU numbering; copies: 2 + 2
B43: IgG1-F174 (antibody)
heavy: B1 heavy with A378D, E384A
light: not shown
notes: EU numbering; copies: 2 + 2
B44: IgG1-F172 (antibody)
heavy: B1 heavy with K319A, A378D
light: not shown
notes: EU numbering; copies: 2 + 2
B45: IgG1-F237 (antibody)
heavy: B1 heavy with W254Y, A378D, M430A
light: not shown
notes: EU numbering; copies: 2 + 2
B46: IgG1-F178 (antibody)
heavy: B1 heavy with D272F, A378D
light: not shown
notes: EU numbering; copies: 2 + 2
B47: IgG1-F221 (antibody)
heavy: B1 heavy with W254Y, D314H, A378D
light: not shown
notes: EU numbering; copies: 2 + 2
B48: IgG1-F195 (antibody)
heavy: B1 heavy with W254M, P259L, T309Q, A378D, M430L
light: not shown
notes: EU numbering; copies: 2 + 2
B49: IgG1-F220 (antibody)
heavy: B1 heavy with W254Y, Q313H, A378D
light: not shown
notes: EU numbering; copies: 2 + 2
B50: IgG1-F215 (antibody)
heavy: B1 heavy with W254Y, T309W, A378D
light: not shown
notes: EU numbering; copies: 2 + 2
B51: IgG1-F213 (antibody)
heavy: B1 heavy with W254Y, T309S, A378D
light: not shown
notes: EU numbering; copies: 2 + 2
B52: IgG1-F222 (antibody)
heavy: B1 heavy with W254Y, N317H, A378D
light: not shown
notes: EU numbering; copies: 2 + 2
B53: IgG1-F227 (antibody)
heavy: B1 heavy with W254Y, N288E, A378D
light: not shown
notes: EU numbering; copies: 2 + 2
B54: IgG1-F223 (antibody)
heavy: B1 heavy with W254Y, K362H, A378D
light: not shown
notes: EU numbering; copies: 2 + 2
B55: IgG1-F216 (antibody)
heavy: B1 heavy with W254Y, T309Y, A378D
light: not shown
notes: EU numbering; copies: 2 + 2
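Also: antibodies captured on a Protein L sensor chip with human FcRn injected as analyte, KD calculated from fitted association and dissociation rate constants.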

T1 sequence (chain, as listed by the source limits assumed, chain 1 of 2): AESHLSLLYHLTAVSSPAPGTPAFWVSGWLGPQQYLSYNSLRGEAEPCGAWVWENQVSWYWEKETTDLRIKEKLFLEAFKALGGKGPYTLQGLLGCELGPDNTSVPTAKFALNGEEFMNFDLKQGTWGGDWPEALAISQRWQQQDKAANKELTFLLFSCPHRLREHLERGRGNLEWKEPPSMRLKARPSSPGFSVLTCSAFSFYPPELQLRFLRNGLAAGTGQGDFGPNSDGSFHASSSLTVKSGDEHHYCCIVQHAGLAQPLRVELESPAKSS
T1 sequence (P61769 21-119 limits assumed, chain 2 of 2): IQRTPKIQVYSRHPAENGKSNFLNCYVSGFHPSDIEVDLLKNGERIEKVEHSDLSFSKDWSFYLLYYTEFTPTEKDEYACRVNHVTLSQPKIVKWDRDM

The assay addresses T1, human FcRn (soluble human FcRn complexed with β2-microglobulin) (human, UniProt P61769 21-119, limits assumed).
T1 construct: also called hFcRn
Nature of the assay: SPR, pH 7.0. (In SPR one partner is held on a chip, and binding of the other changes the refractive index at the surface.)
In turn, B1 had a dissociation constant Kd of 320 nM. This lies in the sub-micromolar range.

B2 gave a Kd of 270 nM.

B3: the affinity, expressed as Kd, was 290 nM. The Kd values of the last two molecules are within 1.5-fold of each other.

Turning to B4, the Kd amounted to 35 nM.

Consider B5, for which the dissociation constant Kd was 310 nM. Against the preceding molecule, the Kd is about 8.9-fold higher.

In turn, B6 showed a Kd of 250 nM.

Take B7: the affinity, expressed as Kd, was 260 nM.

Regarding B8, the dissociation constant (Kd) is 190 nM. The Kd values of the last two molecules are within 1.5-fold of each other.

For B9, the dissociation constant Kd worked out at 230 nM.

For B10, binding was put at a Kd of 720 nM.

Turning to B11, the Kd was found to be 240 nM.

B12 displayed a dissociation constant Kd of 540 nM.

In turn, B13 had a dissociation constant (Kd) of 270 nM.

As to B14, the Kd stood at 740 nM.

In turn, B15 had a Kd of 210 nM.

As for B16, the affinity, expressed as Kd, was 770 nM.

Consider B17, for which the affinity, expressed as Kd, was 250 nM.

B18 yielded a Kd of 680 nM.

B19 returned a Kd of 160 nM.

The molecule B20 showed a Kd of 210 nM. The Kd values of the last two molecules are within 1.5-fold of each other.

The molecule B21 returned an equilibrium dissociation constant (Kd) of 240 nM.

For the molecule B22, the Kd is 170 nM.

On to B23, for which binding was put at a Kd of 230 nM.

For the molecule B24, the affinity, expressed as Kd, was 170 nM.

B25: the equilibrium dissociation constant (Kd) is 200 nM.

In turn, B26 displayed an equilibrium dissociation constant (Kd) of 110 nM.

Turning to B27, the dissociation constant Kd was 280 nM.

The molecule B28 showed an equilibrium dissociation constant (Kd) of 85 nM.

In turn, B29 registered a Kd of 130 nM.

Regarding B30, the Kd was found to be 290 nM. Compared with the last molecule, the Kd is about 2.2-fold higher.

Turning to B31, binding was put at a Kd of 48 nM.

As for B32, the Kd worked out at 120 nM.

The molecule B33 had a dissociation constant Kd of 110 nM.

In turn, B34 showed a Kd of 66 nM.

As for B35, the Kd was found to be 390 nM.

With B36, the Kd is 890 nM.

In the case of B37, the equilibrium dissociation constant (Kd) worked out at 510 nM.

For B38, the Kd worked out at 220 nM.

Molecule B39 displayed a Kd of 230 nM.

As for B40, the Kd is 1500 nM.

Molecule B41 yielded a Kd of 290 nM.

Regarding B42, binding was characterised by a dissociation constant (Kd) of 190 nM.

For B43, the Kd stood at 340 nM.

B44 registered a Kd of 220 nM.

B45 had a Kd of 230 nM.

Turning to B46, the Kd was 270 nM.

Molecule B47 gave an equilibrium dissociation constant (Kd) of 310 nM.

Turning to B48, binding was put at a Kd of 56 nM.

On to B49, for which binding was characterised by a dissociation constant (Kd) of 250 nM.

Regarding B50, the Kd was 96 nM. This Kd lies about 2.6-fold lower than the previous one.

B51 gave a Kd of 230 nM.

B52: the affinity, expressed as Kd, was 340 nM.

Regarding B53, the Kd was determined as 120 nM. Compared with the last molecule, the Kd is about 2.8-fold lower.

As for B54, the dissociation constant (Kd) came to 270 nM.

B55 registered a Kd of 230 nM.
